Three molecules from article PMC9243176, “Multifaceted regulation of the sumoylation of the Sgs1 DNA helicase” (The Journal of Biological Chemistry, 2022) can be followed below.

The target in one data set is T1, Esc2 (Saccharomyces cerevisiae, UniProt Q06340 1-456).
T1 sequence: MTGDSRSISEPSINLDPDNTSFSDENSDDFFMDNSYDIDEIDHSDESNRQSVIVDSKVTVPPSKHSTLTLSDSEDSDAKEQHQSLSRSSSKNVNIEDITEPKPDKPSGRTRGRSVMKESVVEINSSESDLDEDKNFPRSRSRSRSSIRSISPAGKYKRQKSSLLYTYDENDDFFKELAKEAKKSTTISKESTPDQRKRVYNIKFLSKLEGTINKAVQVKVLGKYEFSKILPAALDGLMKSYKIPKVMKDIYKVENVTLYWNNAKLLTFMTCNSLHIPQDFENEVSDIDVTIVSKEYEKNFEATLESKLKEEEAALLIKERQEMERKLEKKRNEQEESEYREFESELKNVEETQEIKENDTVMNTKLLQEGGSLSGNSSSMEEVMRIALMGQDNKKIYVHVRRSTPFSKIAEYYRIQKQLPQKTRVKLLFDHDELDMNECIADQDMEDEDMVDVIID
Put plainly: EMSA; 5-80 nM Esc2, 5 nM DNA; strong preference over dsDNA; 35 mM Tris-HCl pH 7.5, 1 mM DTT, 100 ug/ml BSA, 5 mM MgCl2, 130 mM KCl, 30 C, 10 min; native PAGE in TAE (6.5% STR and E3, 7% Esc2). The following applies: protein: recombinant; four-way Holliday junction of 4 strands. A general note: In EMSA bound probe runs differently from free probe, usually more slowly.

For a further data set, the target named is T2, Esc2-MRΔ (Saccharomyces cerevisiae, UniProt Q06340 1-456, del154-198).
T2 sequence: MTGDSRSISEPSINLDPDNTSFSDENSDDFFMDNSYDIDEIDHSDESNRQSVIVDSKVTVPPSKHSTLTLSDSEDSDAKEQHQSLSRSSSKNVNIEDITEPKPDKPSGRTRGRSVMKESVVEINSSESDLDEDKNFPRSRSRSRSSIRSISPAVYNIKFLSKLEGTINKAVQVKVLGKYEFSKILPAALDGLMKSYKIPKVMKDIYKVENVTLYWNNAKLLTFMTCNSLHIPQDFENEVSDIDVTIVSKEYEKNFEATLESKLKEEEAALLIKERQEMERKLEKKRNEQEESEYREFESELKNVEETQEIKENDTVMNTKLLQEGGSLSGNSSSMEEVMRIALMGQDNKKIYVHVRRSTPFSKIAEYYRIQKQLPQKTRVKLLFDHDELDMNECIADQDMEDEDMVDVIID
Put plainly: EMSA; 5-80 nM protein, 5 nM DNA; 35 mM Tris-HCl pH 7.5, 1 mM DTT, 100 ug/ml BSA, 5 mM MgCl2, 130 mM KCl, 30 C, 10 min; native PAGE in TAE (6.5% STR and E3, 7% Esc2). To be noted: protein: recombinant.

The next data set concerns the target T3, Esc2-5E (Saccharomyces cerevisiae, UniProt Q06340 1-456, K179E;K182E;K183E;K197E;R198E).
T3 sequence: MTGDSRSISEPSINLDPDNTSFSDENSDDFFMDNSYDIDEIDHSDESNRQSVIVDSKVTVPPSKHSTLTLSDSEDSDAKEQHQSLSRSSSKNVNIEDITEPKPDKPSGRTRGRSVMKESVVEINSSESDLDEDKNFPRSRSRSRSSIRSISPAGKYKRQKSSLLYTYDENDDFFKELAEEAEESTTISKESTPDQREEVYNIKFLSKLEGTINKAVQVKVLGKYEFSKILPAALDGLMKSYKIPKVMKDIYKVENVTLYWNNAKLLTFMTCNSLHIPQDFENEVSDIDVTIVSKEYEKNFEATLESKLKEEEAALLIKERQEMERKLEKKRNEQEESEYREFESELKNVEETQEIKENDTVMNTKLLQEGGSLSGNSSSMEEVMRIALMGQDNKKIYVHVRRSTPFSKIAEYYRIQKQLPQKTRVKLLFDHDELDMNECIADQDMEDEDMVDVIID
Described as above. To be noted: protein: recombinant.

Data set [1] addresses T4, Sgs1;Top3;Rmi1 (Saccharomyces cerevisiae;Saccharomyces …, UniProt P35187;P13099;Q02685 1-1447;1-656;1-241, ||). Put plainly: EMSA; 5-40 nM STR, 5 nM DNA; 35 mM Tris-HCl pH 7.5, 1 mM DTT, 100 ug/ml BSA, 5 mM MgCl2, 130 mM KCl, 30 C, 10 min; native PAGE in TAE (6.5% STR and E3, 7% Esc2). To be noted: protein: recombinant;recombinant;recombinant; tags: Flag;V5;GST; copies: 1;1;1; four-way Holliday junction of 4 strands.

The target in the next data set is T5, Mms21;Smc5 (Saccharomyces cerevisiae;Saccharomyces …, UniProt P38632;Q08204 1-267;1-1093, |).
T5 sequence 1: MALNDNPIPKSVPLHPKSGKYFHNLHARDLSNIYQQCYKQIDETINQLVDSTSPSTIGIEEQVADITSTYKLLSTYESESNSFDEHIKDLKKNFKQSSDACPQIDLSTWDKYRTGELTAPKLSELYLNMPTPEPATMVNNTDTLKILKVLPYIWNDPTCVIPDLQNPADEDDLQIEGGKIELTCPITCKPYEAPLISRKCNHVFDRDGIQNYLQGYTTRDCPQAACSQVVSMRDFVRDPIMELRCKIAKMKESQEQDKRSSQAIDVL
T5 sequence 2: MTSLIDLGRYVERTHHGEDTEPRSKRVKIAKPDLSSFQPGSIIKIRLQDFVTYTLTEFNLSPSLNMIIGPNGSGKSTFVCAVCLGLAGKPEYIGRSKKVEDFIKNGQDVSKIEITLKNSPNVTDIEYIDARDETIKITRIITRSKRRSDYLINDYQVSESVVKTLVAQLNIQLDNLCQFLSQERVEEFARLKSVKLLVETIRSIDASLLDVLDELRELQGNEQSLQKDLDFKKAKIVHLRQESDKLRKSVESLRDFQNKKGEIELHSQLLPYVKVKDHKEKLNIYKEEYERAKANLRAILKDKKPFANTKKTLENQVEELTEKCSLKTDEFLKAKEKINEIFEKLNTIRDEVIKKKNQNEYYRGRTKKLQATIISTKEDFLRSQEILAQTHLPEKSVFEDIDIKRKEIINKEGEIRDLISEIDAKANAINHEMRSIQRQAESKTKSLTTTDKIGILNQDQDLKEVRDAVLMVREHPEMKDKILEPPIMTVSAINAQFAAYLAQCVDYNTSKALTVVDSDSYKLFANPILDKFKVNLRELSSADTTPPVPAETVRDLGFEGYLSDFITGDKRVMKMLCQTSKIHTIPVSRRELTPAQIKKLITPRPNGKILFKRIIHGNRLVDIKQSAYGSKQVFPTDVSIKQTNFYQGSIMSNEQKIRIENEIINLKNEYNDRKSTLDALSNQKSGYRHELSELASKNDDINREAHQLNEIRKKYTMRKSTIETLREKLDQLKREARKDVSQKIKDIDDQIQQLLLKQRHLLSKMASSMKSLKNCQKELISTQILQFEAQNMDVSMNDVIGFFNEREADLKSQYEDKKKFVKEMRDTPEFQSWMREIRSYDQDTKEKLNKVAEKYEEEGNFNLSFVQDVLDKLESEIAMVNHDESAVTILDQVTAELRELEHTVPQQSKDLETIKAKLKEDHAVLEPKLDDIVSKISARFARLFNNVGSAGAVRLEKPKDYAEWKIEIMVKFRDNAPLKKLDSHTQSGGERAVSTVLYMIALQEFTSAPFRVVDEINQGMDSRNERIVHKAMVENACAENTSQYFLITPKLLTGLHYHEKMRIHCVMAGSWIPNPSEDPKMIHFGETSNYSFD
Put plainly: EMSA; 5-40 nM E3, 5 nM DNA; less pronounced than STR; 35 mM Tris-HCl pH 7.5, 1 mM DTT, 100 ug/ml BSA, 5 mM MgCl2, 130 mM KCl, 30 C, 10 min; native PAGE in TAE (6.5% STR and E3, 7% Esc2). To be noted: protein: recombinant;recombinant; tags: ;; copies: 1;1; four-way Holliday junction of 4 strands.

The target of data set [2] is T4, Sgs1;Top3;Rmi1. Description: EMSA; 5-40 nM STR, 5 nM DNA; similar to HJ; 35 mM Tris-HCl pH 7.5, 1 mM DTT, 100 ug/ml BSA, 5 mM MgCl2, 130 mM KCl, 30 C, 10 min; native PAGE in TAE (6.5% STR and E3, 7% Esc2). To be noted: protein: recombinant;recombinant;recombinant; tags: Flag;V5;GST; copies: 1;1;1; blunt.
Another data set deals with T6, GST-Esc2-5E (budding yeast, UniProt Q06340 1-456, K179E | K182E | K183E | K197E | R198E).
T6 construct: Esc2 of budding yeast with five basic residues of the midregion (MR) replaced by glutamic acid; The methods describe a pET24a construct; source: expressed and purified by published procedures
T6 sequence (looked up): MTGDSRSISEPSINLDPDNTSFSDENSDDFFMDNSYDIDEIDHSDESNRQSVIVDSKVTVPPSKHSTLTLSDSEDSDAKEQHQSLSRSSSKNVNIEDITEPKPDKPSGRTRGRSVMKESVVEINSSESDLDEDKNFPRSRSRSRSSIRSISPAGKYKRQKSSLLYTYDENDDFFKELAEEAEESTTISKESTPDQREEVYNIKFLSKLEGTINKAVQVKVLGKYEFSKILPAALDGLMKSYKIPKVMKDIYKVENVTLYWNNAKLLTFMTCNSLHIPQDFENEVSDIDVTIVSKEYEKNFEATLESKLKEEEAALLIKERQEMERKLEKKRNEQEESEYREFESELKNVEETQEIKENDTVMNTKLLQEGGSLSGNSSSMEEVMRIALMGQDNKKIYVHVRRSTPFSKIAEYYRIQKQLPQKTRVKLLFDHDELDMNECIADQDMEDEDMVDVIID
Put plainly: pull-down; GST or GST-tagged Esc2 or variants (2.2 μM) incubated with 3.6 μM Ubc9 in T buffer (25 mM Tris-Cl pH 7.4, 10% glycerol, 0.5 mM EDTA, 0.01% Igepal, 1 mM DTT) with 80 mM KCl, 30 min at 4 °C; captured on Glutathione Sepharose 4B; SDS-PAGE, Coomassie blue stain. The following applies: both partners purified.

Another data set addresses T7, GST-Esc2-MRΔ (budding yeast, UniProt Q06340 1-456, truncating residues 154 to 198).
T7 construct: Esc2 of budding yeast lacking the midregion (MR), residues 154 to 198; The methods describe a pET24a construct; source: expressed and purified by published procedures
T7 sequence (looked up): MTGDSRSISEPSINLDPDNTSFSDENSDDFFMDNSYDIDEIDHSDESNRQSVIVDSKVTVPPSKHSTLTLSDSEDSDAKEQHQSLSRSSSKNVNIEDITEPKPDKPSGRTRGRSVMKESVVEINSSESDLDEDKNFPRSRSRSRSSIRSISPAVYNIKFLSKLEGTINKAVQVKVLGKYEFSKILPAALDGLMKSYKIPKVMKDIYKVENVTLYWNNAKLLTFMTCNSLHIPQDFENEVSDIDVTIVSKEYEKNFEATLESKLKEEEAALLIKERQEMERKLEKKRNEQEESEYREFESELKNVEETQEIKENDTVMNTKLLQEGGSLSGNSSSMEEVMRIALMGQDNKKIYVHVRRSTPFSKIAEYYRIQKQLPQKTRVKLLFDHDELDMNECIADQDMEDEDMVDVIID
The description is as above. To be noted: both partners purified.

[3] abbreviates: four-way Holliday junction of 4 strands.

T4 sequence (P35187 whole entry, chain 1 of 3): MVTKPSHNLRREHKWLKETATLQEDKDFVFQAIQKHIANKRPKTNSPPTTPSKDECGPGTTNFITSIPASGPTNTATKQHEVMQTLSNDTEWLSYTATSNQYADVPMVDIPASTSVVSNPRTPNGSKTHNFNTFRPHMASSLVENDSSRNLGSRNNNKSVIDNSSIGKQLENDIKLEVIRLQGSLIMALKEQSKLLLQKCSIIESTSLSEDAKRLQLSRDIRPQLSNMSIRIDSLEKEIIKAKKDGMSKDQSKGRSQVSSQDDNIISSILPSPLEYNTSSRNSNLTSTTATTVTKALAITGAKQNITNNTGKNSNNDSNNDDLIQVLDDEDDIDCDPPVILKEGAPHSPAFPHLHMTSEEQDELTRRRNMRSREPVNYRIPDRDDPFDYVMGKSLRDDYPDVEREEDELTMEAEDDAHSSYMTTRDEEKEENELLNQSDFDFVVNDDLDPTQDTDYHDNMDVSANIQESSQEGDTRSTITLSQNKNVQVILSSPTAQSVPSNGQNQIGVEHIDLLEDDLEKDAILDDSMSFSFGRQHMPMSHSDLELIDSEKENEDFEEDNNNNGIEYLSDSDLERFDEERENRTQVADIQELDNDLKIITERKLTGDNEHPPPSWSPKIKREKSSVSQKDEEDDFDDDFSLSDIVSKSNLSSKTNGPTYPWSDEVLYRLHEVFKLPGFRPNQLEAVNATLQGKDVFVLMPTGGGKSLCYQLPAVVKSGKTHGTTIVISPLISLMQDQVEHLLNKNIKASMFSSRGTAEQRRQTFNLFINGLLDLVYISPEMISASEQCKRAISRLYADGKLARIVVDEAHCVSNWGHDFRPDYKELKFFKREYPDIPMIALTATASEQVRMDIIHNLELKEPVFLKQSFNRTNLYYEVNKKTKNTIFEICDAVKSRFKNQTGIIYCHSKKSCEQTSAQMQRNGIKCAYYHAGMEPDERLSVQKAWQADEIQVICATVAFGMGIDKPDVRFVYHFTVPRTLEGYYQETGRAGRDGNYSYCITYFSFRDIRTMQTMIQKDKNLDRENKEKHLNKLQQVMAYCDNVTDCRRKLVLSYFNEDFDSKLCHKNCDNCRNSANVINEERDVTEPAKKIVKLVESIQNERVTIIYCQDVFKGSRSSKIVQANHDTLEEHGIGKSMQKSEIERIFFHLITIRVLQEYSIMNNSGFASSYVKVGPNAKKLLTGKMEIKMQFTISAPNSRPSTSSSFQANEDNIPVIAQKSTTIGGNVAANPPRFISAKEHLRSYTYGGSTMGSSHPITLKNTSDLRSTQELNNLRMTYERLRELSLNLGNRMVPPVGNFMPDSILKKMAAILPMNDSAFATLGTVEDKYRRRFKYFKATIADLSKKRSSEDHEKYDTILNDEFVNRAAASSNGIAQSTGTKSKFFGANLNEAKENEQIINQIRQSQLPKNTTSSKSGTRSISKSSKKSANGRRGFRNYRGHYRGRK
T4 sequence (P13099 whole entry, chain 2 of 3): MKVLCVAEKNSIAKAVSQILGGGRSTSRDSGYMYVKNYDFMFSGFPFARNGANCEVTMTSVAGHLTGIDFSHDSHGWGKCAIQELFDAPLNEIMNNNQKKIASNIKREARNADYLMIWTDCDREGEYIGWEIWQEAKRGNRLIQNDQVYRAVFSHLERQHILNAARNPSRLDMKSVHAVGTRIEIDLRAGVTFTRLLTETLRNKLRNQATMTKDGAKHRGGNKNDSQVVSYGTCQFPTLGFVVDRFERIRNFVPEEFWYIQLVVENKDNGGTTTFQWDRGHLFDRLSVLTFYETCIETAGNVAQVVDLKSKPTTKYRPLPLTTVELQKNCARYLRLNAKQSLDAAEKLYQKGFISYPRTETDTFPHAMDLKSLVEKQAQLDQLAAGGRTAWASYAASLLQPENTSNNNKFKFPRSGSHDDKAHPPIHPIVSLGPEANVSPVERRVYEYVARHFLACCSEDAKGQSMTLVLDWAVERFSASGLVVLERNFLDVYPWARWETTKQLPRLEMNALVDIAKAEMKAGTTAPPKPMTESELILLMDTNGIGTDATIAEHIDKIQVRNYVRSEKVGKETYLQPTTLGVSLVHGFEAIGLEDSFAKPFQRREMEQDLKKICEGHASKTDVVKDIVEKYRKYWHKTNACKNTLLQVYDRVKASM
T4 sequence (Q02685 whole entry, chain 3 of 3): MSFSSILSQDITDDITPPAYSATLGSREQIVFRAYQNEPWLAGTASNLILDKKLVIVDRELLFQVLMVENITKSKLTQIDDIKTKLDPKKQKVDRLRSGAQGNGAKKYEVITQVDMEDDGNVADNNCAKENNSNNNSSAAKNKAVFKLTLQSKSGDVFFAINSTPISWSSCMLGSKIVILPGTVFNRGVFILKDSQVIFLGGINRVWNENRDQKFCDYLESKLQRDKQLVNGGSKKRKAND

B1: HJ-DNA (H3/H5/H7/H8) (structured_DNA)
DNA 1: TTGATAAGAGGTCATTTGAATTCATGGCTTAGAGCTTAATTGCTGAATCTGGTGCTGGGATCCAACATGTTTTAAATATG
DNA 2: CATATTTAAAACATGTTGGATCCCAGCACCAGATTCAGCATACGTTACCGATCGTACGTTCGATGCTGGCTACTGCTAGC
DNA 3: GCTAGCAGTAGCCAGCATCGAACGTACGATCGGTAACGTAGTCGATTATCGAGATCAAGCTAGCATAGCCATAGCGCGAC
DNA 4: GTCGCGCTATGGCTATGCTAGCTTGATCTCGATAATCGACATTAAGCTCTAAGCCATGAATTCAAATGACCTCTTATCAA
In the case of B1, the binding result is reported as “binds” with Esc2; “no binding” with Esc2-MRΔ (setting [3]); “no binding” in the data set with Esc2-5E (setting [3]); “binds” in the data set with Sgs1;Top3;Rmi1 [1]; “binds” with Mms21;Smc5.

B2: dsDNA (H3/H4) (dsDNA)
DNA 1: TTGATAAGAGGTCATTTGAATTCATGGCTTAGAGCTTAATTGCTGAATCTGGTGCTGGGATCCAACATGTTTTAAATATG
DNA 2: CATATTTAAAACATGTTGGATCCCAGCACCAGATTCAGCAATTAAGCTCTAAGCCATGAATTCAAATGACCTCTTATCAA
For the molecule B2, the binding result with Esc2-MRΔ (blunt) is listed as “no binding”; in the data set with Esc2-5E (blunt) it was “no binding”; with Sgs1;Top3;Rmi1 [2], “binds”.

B3: Ubc9 (SUMO E2) (enzyme, budding yeast, UniProt P50623 1-157, looked up)
chain: MSSLCLQRLQEERKKWRKDHPFGFYAKPVKKADGSMDLQKWEAGIPGKEGTNWAGGVYPITVEYPNEYPSKPPKVKFPAGFYHPNVYPSGTICLSILNEDQDWRPAITLKQIVLGVQDLLDSPNPNSPAQEPAWRSFSRNKAEYDKKVLLQAKQYSK
notes: Ubc9, the SUMO E2 enzyme of budding yeast; source: E. coli, purified (previously published procedures)
B3: the binding result with GST-Esc2-5E and in the data set with GST-Esc2-MRΔ was “binds” in each case.
